We go through 28 molecules from patent publication US20040048243A1, “Methods and compositions for in vitro targeting” (priority 2003, published 2004).

For test [1], the system named is cells infected by targeted phage vectors. Nature of the test: Enhancement of phage transduction by genotoxic agents or genetic trans-complementation. As to conditions: genotoxic drug 10 μM added 36 hours after infection, analysis at 72 hours post-infection. Type of test: cell-based. The method, then:
Semi-confluent cells were infected with 10^5 TU of phage per cell for 4 hours in serum free media, after which fresh medium supplemented with FCS was added (no phage were washed out or removed). In some experiments, a phage admixture of forward and reverse clones at 10^10 TU (forward/reverse molar ratio=1) was tested. Next, cells were incubated for 36 hours followed by the addition of genotoxic drugs (topotecan, 10 μM; cisplatin, 10 μM) or administration of UV radiation (15 J/m^2) with a cross-linker apparatus (UV Stratalinker Model 2400; Stratagene). At 72 hours post-infection, the cells were analyzed for transduction of a reporter gene (β-gal or GFP), and gene expression was normalized per cell number relative to controls.

Test [2] concerns the target T1, rhAngiostatin (Homo sapiens, UniProt P00747).
T1 construct: rh-Angiostatin and rh-Endostatin were produced by EntreMed, Inc; purchased EntreMed, Inc. (Rockville, Md.)
Nature of the test: Panning of CX7C phage library on rhAngiostatin (clone frequency). As to conditions: clones sequenced after panning on rhAngiostatin. Type of test: binding. The method, then:
(§1) A phage library displaying random cyclic peptides with the structure CX7C (C, cysteine; X, any residue) was prepared. An aliquot of the library containing 3×10^10 transducing units (TU) was screened with rhAngiostatin protein coated on microtiter wells as described (Koivunen et al 1993). In the first and second panning the amount of protein used was 10 μg/well. To increase the stringency of panning, the wells were coated with a decreased concentration of rhAngiostatin protein (100 ng/well) in the third panning. Phage remained bound after extensive washing. Bound phage were recovered by infection into F-pilus positive K91 bacteria. To determine the specificity of rhAngiostatin binding, selected phage were assayed as described but using rh-Endostatin and BSA proteins to coat the wells. In all assays, insertless phage (fdtet) was used as a control.
(§2) Phage were sequenced from randomly selected clones after three rounds of panning (Koivunen et al., 1994, 1995; Pasqualini et al., 1995). A number of distinct angiostatin-targeting sequences were identified (Table 10). Randomly selected clones from rounds II and III were sequenced. Amino acid sequences of the phagemid encoded peptides were deduced from nucleotide sequences. A consensus sequence appeared on the third round in 61% of the sequences examined (26 out of 42)—CWSLEXXKC (SEQ D NO: 141). Including the closely related sequence CWSAEWTKC (SEQ ID NO: 142) the consensus motif accounted for 71% of Angiostatin binding peptides. The ratios in the last two columns of Table 10 were calculated by dividing the number of colonies recovered from rhAngiostatin-coated wells by those recovered from rh-Endostatin or BSA wells.

Test [3] relates to antibodies present in the serum. Nature of the test: ELISA of sera on immobilized GST-fusion peptides. The test is classed as binding, human. As to conditions: for reactivity of serum against peptide in presence of the corresponding synthetic peptide: data not shown; for ELISA reactivity of patient serum with GST-fusion peptide: serum of the patients selected for the screenings, GST alone as negative control. On the procedure:
A 20 μg/ml solution of purified GST or GST-fusion proteins in 0.1M NaHCO3 was used to coat maxisorp multi-well plates (Nalge Nunc International Corporation) and incubated overnight at 4° C. The plates were blocked in a blocking buffer (4% milk, 2% casein, and 0.05% Tween-20) for 3-4 hours. A series of […] (1:100-1:1200) of sera from prostate cancer patients or healthy individuals was added and incubated for 1.5 hours and then washed five times with washing buffer (1% milk, 0.5% casein, and 0.025% Tween-20), followed by incubation at 4° C. with anti-human allaline phosphatase-conjugated antibodies (Gibco). The plates were then washed six times in washing buffer and developed using p-NPP (Sigma) as a substrate. An automatic ELISA plate reader (BIO-TEK instrument) recorded the results at OD405 nm.
Probabilities of survival for each group were estimated using the Kaplan-Meier method. A log-rank test was implemented in order to detect significant differences between the groups. Reactivity was considered to be detected if the ratio between GST-peptide and GST alone was greater or equal to two by the ELISA data. The Cox proportional hazards model was applied to analyze the effect of single and multiple risk factors in association with survival. Martingale residual plots were used to assess the proportional hazard assumption. P-values less than 0.05 were considered significant. All analyses were performed using SPLUS statistical software.
ELISA was performed to assess if the peptides could be specifically recognized by the antibodies present in the serum of the patients selected for the screenings. Peptides A (CHQKPWEC, SEQ ID NO: 58), B (CKDRFERC, SEQ ID NO: 59), and C (CNVSDKSC, SEQ ID NO: 60) were produced as GST-fusion proteins and immobilized onto microtiter wells, along with GST alone as a negative control. For each sample tested, a series of 100-fold dilutions was performed. […] The reactivity of each serum against peptides A, B and C was inhibited by the corresponding synthetic peptides (data not shown).
The reactivity profile of 91 sera obtained from clinically annotated prostate cancer patients was examined. Sera from 34 healthy individuals were also tested as a control for specificity. ELISA was performed to evaluate each serum using the three selected peptides (A, B, and C). The sera obtained from patients with prostate cancer were divided into three groups: 35 originated from patients with localized adenocarcinomas, 27 from patients with metastatic androgen-dependent disease, and 29 originated from patients with metastatic androgen-independent disease.
Background: In an ELISA, binding on a coated surface is turned into a signal by an enzyme label.

For test [4], the system named is IgG from the ovarian cancer patient. Nature of the test: Binding of phage to IgGs isolated from ovarian cancer patient ascites or serum. Also noted: species or system human. An excerpt: FIG. 22. Binding of phage containing the CVPELGHEC (SEQ ID NO: 271) and CFELGFELGC (SEQ ID NO: 272) targeting peptides to IgG's isolated from ovarian cancer patient #2 ascites, normal serum and BSA.
FIG. 23. Binding of phage containing the CVPELGHEC (SEQ ID NO: 271) targeting peptide to IgG's isolated from normal serum or from ascites of ovarian cancer patient #1 or #2. Control fd-tet phage contained no insert DNA.
FIG. 24. Binding of phage containing the CVPELGHEC (SEQ ID NO: 271) targeting peptide to IgG's isolated from serum of ovarian cancer patient #2, normal serum or BSA.
To select peptides specific to the ascitic fluid of ovarian cancer patients, IgGs from normal donor serum and ovarian cancer cell free ascitic fluid were bound to Protein agarose (Pierce) in the Pierce acetate, pH5 binding buffer. A two step biopanning procedure was employed in which the first step involved pre-clearing the phage peptide library by incubating it with IgGs isolated from normal donor serum in order to remove common antigens. This was followed by a second step where the pre-cleared library was used to screen cancer specific IgGs. Approximately 10^8 transforming units were added to the IgGs for the panning procedure. The resultant IgG-bound phage were recovered by eluting the phage with 0.1M glycine buffer, pH2.2, neutralizing the phage with 0.1 volume 1 M Tris-Cl, pH 9, and using the phage to infect stationary phase Escherichia coli strain K91. Serial dilutions of phage infected-K91 were plated onto tetracycline (40 μg/ml) LB agar plates and grown overnight at 37° C. Individual clones were picked, amplified, and precipitated for subsequent rounds of panning. A total of three rounds of selection were performed. Phage clones from the second and third rounds were subject to PCR followed by sequence analysis to evaluate enrichment of the most consistently binding peptide sequences.

For test [5], the target named is T2, rhAngiostatin (human, UniProt P00747 98-357, limits assumed). Nature of the test: phage binding to coated wells; colonies from rhAngiostatin wells divided by those from BSA wells. On the procedure:
as §1, with “CX₇C” for “CX7C”, “3×10¹⁰” for “3×10^10”
as §2, with “CWSAEWTKC” left out

Test [6] has as its target T2, rhAngiostatin. Nature of the test: phage binding to coated wells; colonies from rhAngiostatin wells divided by those from rh-Endostatin wells. The method, then: as §1, with “CX₇C” for “CX7C”, “3×10¹⁰” for “3×10^10”
as §2, with “CWSAEWTKC” left out

No end group written: not given here.

T2 sequence (P00747 98-357 limits assumed): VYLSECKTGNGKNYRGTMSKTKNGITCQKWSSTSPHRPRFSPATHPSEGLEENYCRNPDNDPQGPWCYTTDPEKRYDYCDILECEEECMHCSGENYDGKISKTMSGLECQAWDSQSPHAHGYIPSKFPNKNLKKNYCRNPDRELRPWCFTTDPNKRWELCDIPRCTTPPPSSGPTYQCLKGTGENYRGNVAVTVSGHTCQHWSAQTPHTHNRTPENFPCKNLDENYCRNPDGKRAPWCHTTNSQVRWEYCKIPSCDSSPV
T1 sequence (P00747 79-466 limits assumed): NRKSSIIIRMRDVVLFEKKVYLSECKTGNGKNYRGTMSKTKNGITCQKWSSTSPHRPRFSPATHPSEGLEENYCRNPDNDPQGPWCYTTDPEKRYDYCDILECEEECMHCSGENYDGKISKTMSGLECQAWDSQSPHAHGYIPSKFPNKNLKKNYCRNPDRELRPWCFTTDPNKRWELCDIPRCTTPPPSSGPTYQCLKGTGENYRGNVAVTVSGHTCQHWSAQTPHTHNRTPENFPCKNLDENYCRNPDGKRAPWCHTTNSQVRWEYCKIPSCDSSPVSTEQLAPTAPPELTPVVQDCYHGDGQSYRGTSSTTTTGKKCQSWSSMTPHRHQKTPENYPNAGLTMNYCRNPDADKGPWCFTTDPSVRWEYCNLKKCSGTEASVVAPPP

On to `N.N.[Cl][Pt][Cl]` [cisplatin], for which the “gene transduction by targeted phage vectors relative to controls” value in test [1] is “several fold higher”. With CGGREFWLC, the frequency in the test with rhAngiostatin [2] was 1/42. Still for that read-out and setting: next, CGVVSRVGC: 1/42. In the case of CHQKPWEC [peptide A], in test [3], the “reactivity of serum against peptide in presence of the corresponding synthetic peptide” value (shortened to “reactivity of serum against peptide”) was “inhibited” and the “ELISA reactivity of patient serum with GST-fusion peptide” value (shortened to “ELISA reactivity of patient serum”) is on record as “strong reactivity”. Turning to CKDRFERC [peptide B], in test [3], the “reactivity of serum against peptide” value is given as “inhibited” and the “ELISA reactivity of patient serum” value is on record as “strong reactivity”. Consider CLAWVGGRC, for which, in the test with rhAngiostatin [2], the frequency was 1/42. CNVSDKSC [peptide C]: in test [3], the “reactivity of serum against peptide” value is listed as “inhibited” and the “ELISA reactivity of patient serum” value was “strong reactivity”.

Consider CQGKFSQRC, for which the frequency with rhAngiostatin [2] was 1/42. Consider CRVLADRDC, for which, in the test with rhAngiostatin [2], the frequency is listed as 1/42.

Take CRWSSMIWC: the frequency in the test with rhAngiostatin [2] is 1/42. Consider CSLQGIVGC, for which, in the test with rhAngiostatin [2], the frequency was 1/42. On to CSRSVSRLC, for which the frequency with rhAngiostatin [2] was 1/42. On the same count and under the same terms, next, CVAADRYVC: 1/42. Turning to CVPELGHEC, the “phage binding to IgG from ovarian cancer patient #2 ascites versus IgG from a normal patient or BSA” value in test [4] (FIG. 22) is recorded as “very high selectivity”. The “phage binding to IgGs from patient #2 compared to patient #1 or normal individuals” value in test [4] (FIG. 23) is “much higher affinity”. In addition, in test [4] (FIG. 24), the “phage binding to serum from patient #2 compared to BSA or normal serum” value was “similarly high selectivity”. Turning to CWSAEWTKC, in the test with rhAngiostatin [2], the frequency is on record as 4/42.

In the case of CWSLEFTKC, the frequency with rhAngiostatin [2] is 5/42.

CWSLELLKC: the frequency with rhAngiostatin [2] is reported as 2/42. In the case of CWSLELSKC, the frequency with rhAngiostatin [2] was 10/42.

Regarding CWSLESLKC, in the test with rhAngiostatin [2], the frequency is listed as 4/42.

As for CWSLEVAKC, in the test with rhAngiostatin [2], the frequency is 5/42.

For the molecule CYGAWRVSC, in the test with rhAngiostatin [2], the frequency was 1/42.

B1: phage displaying CWSAEWTKC (peptide)
peptide: CWSAEWTKC
modifications: not fully specified (bridges); cysteine pairing not given here; also: displayed on phage
Regarding B1, the “rh-Angio/BSA (ratio of colonies recovered)” value in the test with rhAngiostatin [5] was found to be 892 ratio. For the same molecule, in the test with rhAngiostatin [6], the “rh-Angio/rhEndo (ratio of colonies recovered)” value came out at 124 ratio.

B2: phage displaying CWSLEFTKC (peptide)
peptide: CWSLEFTKC
modifications: not fully specified (bridges); cysteine pairing not given here; also: displayed on phage
Turning to B2, in the test with rhAngiostatin [5], the “rh-Angio/BSA (ratio of colonies recovered)” value was 958 ratio. Also, in the test with rhAngiostatin [6], the “rh-Angio/rhEndo (ratio of colonies recovered)” value was found to be 958 ratio.

B3: phage displaying CRWSSMIWC (peptide)
peptide: CRWSSMIWC
modifications: not fully specified (bridges); cysteine pairing not given here; also: displayed on phage
With B3, the “rh-Angio/BSA (ratio of colonies recovered)” value in the test with rhAngiostatin [5] amounted to 11 ratio. For the same molecule, the “rh-Angio/rhEndo (ratio of colonies recovered)” value with rhAngiostatin [6] was 7 ratio.

B4: phage displaying CWSLELLKC (peptide)
peptide: CWSLELLKC
modifications: not fully specified (bridges); cysteine pairing not given here; also: displayed on phage
Regarding B4, the “rh-Angio/BSA (ratio of colonies recovered)” value with rhAngiostatin [5] worked out at 734 ratio. Besides, in the test with rhAngiostatin [6], the “rh-Angio/rhEndo (ratio of colonies recovered)” value was found to be 489 ratio.

B5: phage displaying CWSLELSKC (peptide)
peptide: CWSLELSKC
modifications: not fully specified (bridges); cysteine pairing not given here; also: displayed on phage
As for B5, the “rh-Angio/BSA (ratio of colonies recovered)” value with rhAngiostatin [5] was found to be 630 ratio. For the same molecule, the “rh-Angio/rhEndo (ratio of colonies recovered)” value with rhAngiostatin [6] was 630 ratio.

B6: phage displaying CWSLEVAKC (peptide)
peptide: CWSLEVAKC
modifications: not fully specified (bridges); cysteine pairing not given here; also: displayed on phage
Consider B6, for which the “rh-Angio/BSA (ratio of colonies recovered)” value with rhAngiostatin [5] was 1120 ratio. Also, in the test with rhAngiostatin [6], the “rh-Angio/rhEndo (ratio of colonies recovered)” value came out at 486 ratio.

B7: phage displaying CYGAWRVSC (peptide)
peptide: CYGAWRVSC
modifications: not fully specified (bridges); cysteine pairing not given here; also: displayed on phage
Turning to B7, the “rh-Angio/BSA (ratio of colonies recovered)” value with rhAngiostatin [5] turned out to be 14 ratio. Besides, the “rh-Angio/rhEndo (ratio of colonies recovered)” value in the test with rhAngiostatin [6] was found to be 6 ratio.
